Numbered stars: 1 amine (or outer) side, 2 acyl side, 3 side chain; on linkers, the order of the positions; unused ones are H or OH. Bridge positions count the residues as written; N and C are the ends. Side chains are listed from the residue outwards. Ends that are not written are not given here. * marks the point of attachment. C20 diacid = O=C(O)CCCCCCCCCCCCCCCCCCC(=O)*; γGlu = O=C(O)[C@H](CCC(=O)[*:2])N[*:1]
T1: human calcitonin receptor (human, UniProt P30988 25-474)
T1 sequence (looked up): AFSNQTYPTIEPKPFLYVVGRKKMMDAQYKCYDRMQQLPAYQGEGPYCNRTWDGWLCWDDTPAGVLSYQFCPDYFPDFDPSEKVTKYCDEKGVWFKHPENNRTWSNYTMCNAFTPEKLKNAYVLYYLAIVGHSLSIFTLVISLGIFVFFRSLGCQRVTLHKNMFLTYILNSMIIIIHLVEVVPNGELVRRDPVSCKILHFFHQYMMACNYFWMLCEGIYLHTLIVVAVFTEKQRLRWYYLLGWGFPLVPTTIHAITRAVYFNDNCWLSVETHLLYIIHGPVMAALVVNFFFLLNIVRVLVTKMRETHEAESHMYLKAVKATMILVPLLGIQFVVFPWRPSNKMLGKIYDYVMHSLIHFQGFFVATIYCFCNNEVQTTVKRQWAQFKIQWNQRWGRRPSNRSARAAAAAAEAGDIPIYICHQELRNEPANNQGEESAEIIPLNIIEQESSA

B1: N^ε1-[(4S)-4-carboxy-4-(19-carboxynonadecanoylamino)butanoyl]-[His14,Arg17,Pro21,Pro27,His34]-h-amylin (peptide)
peptide: K([γGlu-C20 diacid])CNTATCATQRLAHFLRHSSPNFGAIPSSTNVGHNTY-NH2
modifications: disulfide 2-7; N-terminus assumed
SMILES: CC[C@H](C)[C@H](NC(=O)[C@H](C)NC(=O)CNC(=O)[C@H](Cc1ccccc1)NC(=O)[C@H](CC(N)=O)NC(=O)[C@@H]1CCCN1C(=O)[C@H](CO)NC(=O)[C@H](CO)NC(=O)[C@H](Cc1c[nH]cn1)NC(=O)[C@H](CCCNC(=N)N)NC(=O)[C@H](CC(C)C)NC(=O)[C@H](Cc1ccccc1)NC(=O)[C@H](Cc1c[nH]cn1)NC(=O)[C@H](C)NC(=O)[C@H](CC(C)C)NC(=O)[C@H](CCCNC(=N)N)NC(=O)[C@H](CCC(N)=O)NC(=O)[C@@H](NC(=O)[C@H](C)NC(=O)[C@@H]1CSSC[C@H](NC(=O)[C@@H](N)CCCCNC(=O)CC[C@H](NC(=O)CCCCCCCCCCCCCCCCCCC(=O)O)C(=O)O)C(=O)N[C@@H](CC(N)=O)C(=O)N[C@@H]([C@@H](C)O)C(=O)N[C@@H](C)C(=O)N[C@@H]([C@@H](C)O)C(=O)N1)[C@@H](C)O)C(=O)N1CCC[C@H]1C(=O)N[C@@H](CO)C(=O)N[C@@H](CO)C(=O)N[C@H](C(=O)N[C@@H](CC(N)=O)C(=O)N[C@H](C(=O)NCC(=O)N[C@@H](Cc1c[nH]cn1)C(=O)N[C@@H](CC(N)=O)C(=O)N[C@H](C(=O)N[C@@H](Cc1ccc(O)cc1)C(N)=O)[C@@H](C)O)C(C)C)[C@@H](C)O
notes: also called compound 81
B2: N^ε1-[(4S)-4-carboxy-4-(19-carboxynonadecanoylamino)butanoyl]-[His14,Arg17,Pro21,Pro27,His35]-h-amylin (peptide)
peptide: K([γGlu-C20 diacid])CNTATCATQRLAHFLRHSSPNFGAIPSSTNVGSHTY-NH2
modifications: disulfide 2-7; N-terminus assumed
SMILES: CC[C@H](C)[C@H](NC(=O)[C@H](C)NC(=O)CNC(=O)[C@H](Cc1ccccc1)NC(=O)[C@H](CC(N)=O)NC(=O)[C@@H]1CCCN1C(=O)[C@H](CO)NC(=O)[C@H](CO)NC(=O)[C@H](Cc1c[nH]cn1)NC(=O)[C@H](CCCNC(=N)N)NC(=O)[C@H](CC(C)C)NC(=O)[C@H](Cc1ccccc1)NC(=O)[C@H](Cc1c[nH]cn1)NC(=O)[C@H](C)NC(=O)[C@H](CC(C)C)NC(=O)[C@H](CCCNC(=N)N)NC(=O)[C@H](CCC(N)=O)NC(=O)[C@@H](NC(=O)[C@H](C)NC(=O)[C@@H]1CSSC[C@H](NC(=O)[C@@H](N)CCCCNC(=O)CC[C@H](NC(=O)CCCCCCCCCCCCCCCCCCC(=O)O)C(=O)O)C(=O)N[C@@H](CC(N)=O)C(=O)N[C@@H]([C@@H](C)O)C(=O)N[C@@H](C)C(=O)N[C@@H]([C@@H](C)O)C(=O)N1)[C@@H](C)O)C(=O)N1CCC[C@H]1C(=O)N[C@@H](CO)C(=O)N[C@@H](CO)C(=O)N[C@H](C(=O)N[C@@H](CC(N)=O)C(=O)N[C@H](C(=O)NCC(=O)N[C@@H](CO)C(=O)N[C@@H](Cc1c[nH]cn1)C(=O)N[C@H](C(=O)N[C@@H](Cc1ccc(O)cc1)C(N)=O)[C@@H](C)O)C(C)C)[C@@H](C)O
notes: also called compound 66
B3: N^ε1-[(4S)-4-carboxy-4-(19-carboxynonadecanoylamino)butanoyl]-[His14,Arg17,Pro21,Pro27,Pro31]-h-amylin (peptide)
peptide: K([γGlu-C20 diacid])CNTATCATQRLAHFLRHSSPNFGAIPSSTPVGSNTY-NH2
modifications: disulfide 2-7; N-terminus assumed
SMILES: CC[C@H](C)[C@H](NC(=O)[C@H](C)NC(=O)CNC(=O)[C@H](Cc1ccccc1)NC(=O)[C@H](CC(N)=O)NC(=O)[C@@H]1CCCN1C(=O)[C@H](CO)NC(=O)[C@H](CO)NC(=O)[C@H](Cc1c[nH]cn1)NC(=O)[C@H](CCCNC(=N)N)NC(=O)[C@H](CC(C)C)NC(=O)[C@H](Cc1ccccc1)NC(=O)[C@H](Cc1c[nH]cn1)NC(=O)[C@H](C)NC(=O)[C@H](CC(C)C)NC(=O)[C@H](CCCNC(=N)N)NC(=O)[C@H](CCC(N)=O)NC(=O)[C@@H](NC(=O)[C@H](C)NC(=O)[C@@H]1CSSC[C@H](NC(=O)[C@@H](N)CCCCNC(=O)CC[C@H](NC(=O)CCCCCCCCCCCCCCCCCCC(=O)O)C(=O)O)C(=O)N[C@@H](CC(N)=O)C(=O)N[C@@H]([C@@H](C)O)C(=O)N[C@@H](C)C(=O)N[C@@H]([C@@H](C)O)C(=O)N1)[C@@H](C)O)C(=O)N1CCC[C@H]1C(=O)N[C@@H](CO)C(=O)N[C@@H](CO)C(=O)N[C@H](C(=O)N1CCC[C@H]1C(=O)N[C@H](C(=O)NCC(=O)N[C@@H](CO)C(=O)N[C@@H](CC(N)=O)C(=O)N[C@H](C(=O)N[C@@H](Cc1ccc(O)cc1)C(N)=O)[C@@H](C)O)C(C)C)[C@@H](C)O
notes: also called compound 62
B4: N^ε1-[(4S)-4-carboxy-4-[[(4S)-4-carboxy-4-(19-carboxynonadecanoylamino)butanoyl]amino]butanoyl]-[Arg17,Pro21,Pro27,His34]-h-amylin (peptide)
peptide: K([γGlu-γGlu-C20 diacid])CNTATCATQRLANFLRHSSPNFGAIPSSTNVGHNTY-NH2
modifications: disulfide 2-7; N-terminus assumed
SMILES: CC[C@H](C)[C@H](NC(=O)[C@H](C)NC(=O)CNC(=O)[C@H](Cc1ccccc1)NC(=O)[C@H](CC(N)=O)NC(=O)[C@@H]1CCCN1C(=O)[C@H](CO)NC(=O)[C@H](CO)NC(=O)[C@H](Cc1c[nH]cn1)NC(=O)[C@H](CCCNC(=N)N)NC(=O)[C@H](CC(C)C)NC(=O)[C@H](Cc1ccccc1)NC(=O)[C@H](CC(N)=O)NC(=O)[C@H](C)NC(=O)[C@H](CC(C)C)NC(=O)[C@H](CCCNC(=N)N)NC(=O)[C@H](CCC(N)=O)NC(=O)[C@@H](NC(=O)[C@H](C)NC(=O)[C@@H]1CSSC[C@H](NC(=O)[C@@H](N)CCCCNC(=O)CC[C@H](NC(=O)CC[C@H](NC(=O)CCCCCCCCCCCCCCCCCCC(=O)O)C(=O)O)C(=O)O)C(=O)N[C@@H](CC(N)=O)C(=O)N[C@@H]([C@@H](C)O)C(=O)N[C@@H](C)C(=O)N[C@@H]([C@@H](C)O)C(=O)N1)[C@@H](C)O)C(=O)N1CCC[C@H]1C(=O)N[C@@H](CO)C(=O)N[C@@H](CO)C(=O)N[C@H](C(=O)N[C@@H](CC(N)=O)C(=O)N[C@H](C(=O)NCC(=O)N[C@@H](Cc1c[nH]cn1)C(=O)N[C@@H](CC(N)=O)C(=O)N[C@H](C(=O)N[C@@H](Cc1ccc(O)cc1)C(N)=O)[C@@H](C)O)C(C)C)[C@@H](C)O
notes: also called compound 86
B5: N^ε1-[(4S)-4-carboxy-4-[[(4S)-4-carboxy-4-(19-carboxynonadecanoylamino)butanoyl]amino]butanoyl]-[Glu14,Arg17,Pro21,Pro27,Arg34]-h-amylin (peptide)
peptide: K([γGlu-γGlu-C20 diacid])CNTATCATQRLAEFLRHSSPNFGAIPSSTNVGRNTY-NH2
modifications: disulfide 2-7; N-terminus assumed
SMILES: CC[C@H](C)[C@H](NC(=O)[C@H](C)NC(=O)CNC(=O)[C@H](Cc1ccccc1)NC(=O)[C@H](CC(N)=O)NC(=O)[C@@H]1CCCN1C(=O)[C@H](CO)NC(=O)[C@H](CO)NC(=O)[C@H](Cc1c[nH]cn1)NC(=O)[C@H](CCCNC(=N)N)NC(=O)[C@H](CC(C)C)NC(=O)[C@H](Cc1ccccc1)NC(=O)[C@H](CCC(=O)O)NC(=O)[C@H](C)NC(=O)[C@H](CC(C)C)NC(=O)[C@H](CCCNC(=N)N)NC(=O)[C@H](CCC(N)=O)NC(=O)[C@@H](NC(=O)[C@H](C)NC(=O)[C@@H]1CSSC[C@H](NC(=O)[C@@H](N)CCCCNC(=O)CC[C@H](NC(=O)CC[C@H](NC(=O)CCCCCCCCCCCCCCCCCCC(=O)O)C(=O)O)C(=O)O)C(=O)N[C@@H](CC(N)=O)C(=O)N[C@@H]([C@@H](C)O)C(=O)N[C@@H](C)C(=O)N[C@@H]([C@@H](C)O)C(=O)N1)[C@@H](C)O)C(=O)N1CCC[C@H]1C(=O)N[C@@H](CO)C(=O)N[C@@H](CO)C(=O)N[C@H](C(=O)N[C@@H](CC(N)=O)C(=O)N[C@H](C(=O)NCC(=O)N[C@@H](CCCNC(=N)N)C(=O)N[C@@H](CC(N)=O)C(=O)N[C@H](C(=O)N[C@@H](Cc1ccc(O)cc1)C(N)=O)[C@@H](C)O)C(C)C)[C@@H](C)O
notes: also called compound 88
B6: N^ε1-[(4S)-4-carboxy-4-[[(4S)-4-carboxy-4-(19-carboxynonadecanoylamino)butanoyl]amino]butanoyl]-[Glu14,Arg17,Pro21,Pro27,Arg35]-h-amylin (peptide)
peptide: K([γGlu-γGlu-C20 diacid])CNTATCATQRLAEFLRHSSPNFGAIPSSTNVGSRTY-NH2
modifications: disulfide 2-7; N-terminus assumed
SMILES: CC[C@H](C)[C@H](NC(=O)[C@H](C)NC(=O)CNC(=O)[C@H](Cc1ccccc1)NC(=O)[C@H](CC(N)=O)NC(=O)[C@@H]1CCCN1C(=O)[C@H](CO)NC(=O)[C@H](CO)NC(=O)[C@H](Cc1c[nH]cn1)NC(=O)[C@H](CCCNC(=N)N)NC(=O)[C@H](CC(C)C)NC(=O)[C@H](Cc1ccccc1)NC(=O)[C@H](CCC(=O)O)NC(=O)[C@H](C)NC(=O)[C@H](CC(C)C)NC(=O)[C@H](CCCNC(=N)N)NC(=O)[C@H](CCC(N)=O)NC(=O)[C@@H](NC(=O)[C@H](C)NC(=O)[C@@H]1CSSC[C@H](NC(=O)[C@@H](N)CCCCNC(=O)CC[C@H](NC(=O)CC[C@H](NC(=O)CCCCCCCCCCCCCCCCCCC(=O)O)C(=O)O)C(=O)O)C(=O)N[C@@H](CC(N)=O)C(=O)N[C@@H]([C@@H](C)O)C(=O)N[C@@H](C)C(=O)N[C@@H]([C@@H](C)O)C(=O)N1)[C@@H](C)O)C(=O)N1CCC[C@H]1C(=O)N[C@@H](CO)C(=O)N[C@@H](CO)C(=O)N[C@H](C(=O)N[C@@H](CC(N)=O)C(=O)N[C@H](C(=O)NCC(=O)N[C@@H](CO)C(=O)N[C@@H](CCCNC(=N)N)C(=O)N[C@H](C(=O)N[C@@H](Cc1ccc(O)cc1)C(N)=O)[C@@H](C)O)C(C)C)[C@@H](C)O
notes: also called compound 89

Each binder was assayed against T1, human calcitonin receptor (assay: cell-based or functional assay).

Row | Binder | hCTR funct. EC50 [nM]
1 | B1 | 1.73
2 | B2 | 0.542
3 | B3 | 0.539
4 | B4 | 19.2
5 | B5 | 6.55
6 | B6 | 11.2
